{"source": "the nanobody polyreactivity screen of Harvey et al. (2022)"}
{"experiment": "yeast display, Sf9 membrane polyspecificity reagent, FACS + sequencing; frameworks hold sequencing errors", "how_it_was_run": "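A nanobody's polyreactivity label depends on the gate it was sorted from. Yeast display cells were stained with 10% biotinylated, detergent-solubilized Sf9 membrane reagent for 1 hour at 4 °C, enriched on streptavidin microbeads and sorted by FACS. The low and high (top ~1%) gates were set on anti-HA fluorescence for expression and streptavidin fluorescence for reagent binding.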"}
{"sequence": "QVHLVESGGGLVQAGGSLRLSCAASGSIFSVYTMGWYRQATGKEREFVPSIDWSAGSTNYADSVKGRFTISRDNAKNTVYFQRNSLKPEDTADDYCARAGSSWDTLYKYYLEHDYWGQGSQVTVSS", "polyreactivity (PSR sort gate)": "low polyreactivity"}
{"sequence": "QVHLVESGGGLVQAGGSLRLSCAASGSIFSYYAMGWYRQAPGKERELVAAISQSGGSTYYADSVKGRFTISRDNAKNTVYLQMNSLKPEDTAVNYCNAGRGTFKRYTALQYWGQGTQVTVSS", "polyreactivity (PSR sort gate)": "low polyreactivity"}
{"sequence": "QVHLVESGGGLVQAGGSLRLSCAASGSIFSYYGMGWYRQAPGKERELVAAITRSTGSTYYADSVKGRFTISRDYAKNTVYLQMNSLKPEDTAVYYCATEYVVLWEFDYWGQGTQVTVSS", "polyreactivity (PSR sort gate)": "low polyreactivity"}
{"sequence": "QVHLVESGGGLVQAGGSLRLSCAASGSIFTYYAMGWYRQAPGKERELVAAISSDGSTTYADSVKGRFTISRDNAKNTVYLQMNSLKPEDTAVYYCAASSYNGHGYWGQGTQVTVSS", "polyreactivity (PSR sort gate)": "low polyreactivity"}
{"sequence": "QVHLVESGGGLVQAGGSLRLSCAASGSIFVHNAMGWYRQAPGKESELVAGISARGASTYYADSVKGRFTISRDNAKNTVYLQMKSLKPEDTAVYYCAADRIPGYRVYGFYYWGQGTQVTVSS", "polyreactivity (PSR sort gate)": "low polyreactivity"}
{"sequence": "QVHLVESGGGLVQAGGSLRLSCAASGSIFVPYAMGWYRKAPGKERELVAAITYSDGCTYYADSVKGRFTMSRDNAKNTVYLQMNSLKPEDTAVYYCATYPQYYFRYDYWGQGTQVTVSS", "polyreactivity (PSR sort gate)": "high polyreactivity"}
{"sequence": "QVHLVESGGGLVQAGGSLRLSCAASGSIFYIYAMGWYRQAPGKERELVAGITSGGGTYYADSVKGRFTISRDNAKNTVYLQMNSLKPEDTAVYYCAADYLYDYDYWGQGTQVTVSS", "polyreactivity (PSR sort gate)": "high polyreactivity"}
{"sequence": "QVHLVESGGGLVQAGGSLRLSCAASGSIFYWYAMGWYRQAPGKERELVAAITWSGGSTYYADSVKGRFTISRDNAKNTVDLQMNSLKPEDTAVYYCAALVYGYPRWSGKYDYWGQVTQVTVSS", "polyreactivity (PSR sort gate)": "high polyreactivity"}
{"sequence": "QVHLVESGGGLVQAGGSLRLSCAASGSIIIRNAMGWYRQAPGKERELVATITRSGSTYYADSVKGRFTISRDNAKNTVYLQMNSLKPEDTAVYYFAADWPNLVEYYYWGQGTQVTVSS", "polyreactivity (PSR sort gate)": "high polyreactivity"}
{"sequence": "QVHLVESGGGLVQAGGSLRLSCAASGSILSINGRGWSRQAPGKERELVATIDGSDGSTFYADSVKGRFTISRDNAKNTVYLQMNSLKPEDTAVYYCAAENFWQTKEYDYWGQGTQVTVSS", "polyreactivity (PSR sort gate)": "low polyreactivity"}
{"sequence": "QVHLVESGGGLVQAGGSLRLSCAASGSNFYPYAMGWYRQEPGKERELVAAIRWRGDRTYYADSVKGRFTISRDNAKKTVYLQMNSLKPEDTGVYYCAADLSGWSTHGSWGQATQVTVSS", "polyreactivity (PSR sort gate)": "high polyreactivity"}
{"sequence": "QVHLVESGGGLVQAGGSLRLSCAASGSTFALYGMGWYRQAPGKERELVAASTWSGTGTYYADSVKGRFTISRDNAKNTVYLQMNSLKPEDTAVYYCAADGYTTYYSEFYYWGQATQVTVSS", "polyreactivity (PSR sort gate)": "low polyreactivity"}
{"sequence": "QVHLVESGGGLVQAGGSLRLSCAASGSTFGYYTMGWYRQAPGKERELVAAISGSGDSTYYADSVKGRFTISRDNAKNTVYLQMNSLKPEDTAVYYCAKRYYKRYNYWGQGTQVTVSS", "polyreactivity (PSR sort gate)": "high polyreactivity"}
{"sequence": "QVHLVESGGGLVQAGGSLRLSCAASGSTFKIYAMGWYRQAPGKERELVAAITRGGSTNYADSVKGRFTISRDNAKNTVYLQMNSLKPEDTAVYYCAASYWYRRYGTYTYDYWGQGTQVTVSS", "polyreactivity (PSR sort gate)": "high polyreactivity"}
{"sequence": "QVHLVESGGGLVQAGGSLRLSCAASGSTFQRYAMGWDRQAPGKERELDAAITIRGTRTYYADSVKGRFTISRDNAKNTVYLQMNSLKPEDTAVYYCAATYYWYGHPSRRYDYWGQGTQVTVSS", "polyreactivity (PSR sort gate)": "high polyreactivity"}
{"sequence": "QVHLVESGGGLVQAGGSLRLSCAASGSTFRLYAMRWNRQAPGKERELVASITFSDSNTSYADSVKGRFTISRDNAKNTVYLQMNSLKPEDTAVYYCAKETSYENVVYTFDYDYWGQGTQVTVSS", "polyreactivity (PSR sort gate)": "low polyreactivity"}
{"sequence": "QVHLVESGGGLVQAGGSLRLSCAASGSTFTYYAMGWYRQAPGKERELVAAISRRGGSTYYADSVKGRFTISRDNAKNTVYLQMNSLKPEDTAVYYCNVVIYSYGCNGRYDFWGQGTQVTVSS", "polyreactivity (PSR sort gate)": "high polyreactivity"}
{"sequence": "QVHLVESGGGLVQAGGSLRLSCAASGSTFVTNAMGWYRQAPGKERELVAAITSGAGTYYADSVKGRFTISRDNAKNTVYLQMNSLKPEDTAVYYCAARRYYSRGRYRFGYWGQGTQVTVSS", "polyreactivity (PSR sort gate)": "high polyreactivity"}
{"sequence": "QVHLVESGGGLVQAGGSLRLSCAASGSTFVTYAMGWYTQAPGKEREFVAAISSTGTGRTYYADSVKGRFTISRDNAKNTVYLQMNSLKPEDTAVYYCAADLYGTYDYCGQGTQVTVSS", "polyreactivity (PSR sort gate)": "low polyreactivity"}
{"sequence": "QVHLVESGGGLVQAGGSLRLSCAASGSTFYRYAMGWYRQAPGKEREFVASISKRGGSTYYADSVKGRFTISRDNAKNTVYLQMISLKPEETAVYYCAADPKFFSGSYLYGYWGQGTQVTVSS", "polyreactivity (PSR sort gate)": "high polyreactivity"}
{"sequence": "QVHLVESGGGLVQAGGSLRLSCAASGSTFYRYAMGWYRQAPGKERELVAAITRSGGSTYYADSVKGRFTISRDNAKNTVYLLMNSLKPEDTAVYYCAADRYYVYTFYYWGQGTQVTVSS", "polyreactivity (PSR sort gate)": "high polyreactivity"}
{"sequence": "QVHLVESGGGLVQAGGSLRLSCAASGSTFYYNAMGWYRQAPGKERELDAAITFTGGSTYADSVKGRFTISRDNAKNTVYLQMNSLKPEDTAVYYCAAESLISWRYDYWGQGTQVTVSS", "polyreactivity (PSR sort gate)": "low polyreactivity"}
{"sequence": "QVHLVESGGGLVQAGGSLRLSCAASGSTILFYAMGWYRQAPGKERELVATISRGGSTYYADSVKGRFTISRDNAKNTVYLEMNSLKPEDTAVYYCAARATRVTIAPRYGYWGQGTQVTVSS", "polyreactivity (PSR sort gate)": "low polyreactivity"}
{"sequence": "QVHLVESGGGLVQAGGSLRLSCAASGSTIYYNAMGWYRQAPGKERELVAAISKSSSRTYYADSVKGRFTISRDNAKNTVYLQMNSLKTEDTAVYFCAADAVYFHFDYWGQGTQVTVSS", "polyreactivity (PSR sort gate)": "high polyreactivity"}
{"sequence": "QVHLVESGGGLVQAGGSLRLSCAASGSTLHYYTMGWYRQEPGKERELVAAITSGGSTHYADSVKGRFTISRDNAKNTVYLQMNSLKPEDTAVYYCAVKTGKWIPRDYWGQGTQVTVSS", "polyreactivity (PSR sort gate)": "low polyreactivity"}
{"sequence": "QVHLVESGGGLVQAGGSLRLSCAASGYIFGGYAMGWSRQAPGKEREFVAAISDISGSTYYADSVKGRFTISRDNAKNTVYLQMNSLKPEDTAVYYGGHTSTADEDYWGQGTQVTVSS", "polyreactivity (PSR sort gate)": "low polyreactivity"}
{"sequence": "QVHLVESGGGLVQAGGSLRLSCAASGYTFGHYAMGWYRQAPGKERELVAVITSGGSTNYADSVKGRFTISRDNAKNTVYLQMNSLKPEDTAVYYCAADLYFYYVWIRDYWGQGTQVTVSS", "polyreactivity (PSR sort gate)": "low polyreactivity"}
{"sequence": "QVHLVESGGGLVQAGGSLRLSCAASGYTFQWYDRGWYRQAPGKERELVASISWRGGSTYYADSVKGRFTISRDNAKNTVYLQMNSLKPEDTAVYYCAASLWPDYEYVYWGQGTQVTVSS", "polyreactivity (PSR sort gate)": "low polyreactivity"}
{"sequence": "QVHLVESGGGLVQAGGSLRLSCAASGYTRFYALGWYRQAPGKERELVAAISSSGGNTYYADSVKGSFTISRDNAKNTVYLQMNSLKPEDTAVYYCAKYVSYSRTLYDYWGQGTQVTVSS", "polyreactivity (PSR sort gate)": "high polyreactivity"}
{"sequence": "QVHLVESGGGLVQAGGSLRLSCAATGRTFRSYAMGWYRQAPGKEREFVAAISRSGASTRYPDSVKGRFTISRDIAKTTVYLQMNSLKPEVTAVYYCAAVWPDVRGYDYWGQGTEVTVSS", "polyreactivity (PSR sort gate)": "high polyreactivity"}
{"sequence": "QVHLVESGGGLVQAGGSLRLSCAATGSTFAHNDMGWYRQAPGKERELVAAITWGDSSTYYADSVKGRFTISRDNAKNTVYLQMNSLKPEDTAVYYCAKDYGFTGYGYWGQGTQVTVSS", "polyreactivity (PSR sort gate)": "low polyreactivity"}
{"sequence": "QVHLVESGGGLVQAGGSLRLSCAGSGRTFRYYAMGWYGQAPGKERELVAAISVRTGSTSDADSVKGRFTISRDNAKNTVYLQMNSLNPEDTAVYYCAATSRYFQPPGYGGGRIGYGYWGQGTQVTVSS", "polyreactivity (PSR sort gate)": "high polyreactivity"}
{"sequence": "QVHLVESGGGLVQAGGSLRLSCASSGSIFRYNTMGWYRQAPGKERELVAAIRGDGSTNYADSVKGRFTISRDNAKNTVYLQMNSLKPEDTAVYYCAVNLRGYRYAYDYWGQGTKVTVSS", "polyreactivity (PSR sort gate)": "low polyreactivity"}
{"sequence": "QVHLVESGGGLVQAGGSLRLSCASTGIIFLRNAMGWYRQAHGKERELVAAISYRGGSTYYADSVKGRFTISRDNANNTVYLQMNSLKPEDTAVYYCNDLYTSLYDYWGQGTQVTVSS", "polyreactivity (PSR sort gate)": "high polyreactivity"}
{"sequence": "QVHLVESGGGLVQAGGSLRLSCDASGLTLWTYAMGWSRQAAGKEMELVARIRSGGSTYYADSVKGRFTFSRDNAKNTVYLQMNSLKPEDTAVYSCNAKRYGRWAAAGRVGYDYWGQGTQVTVSS", "polyreactivity (PSR sort gate)": "high polyreactivity"}
{"sequence": "QVHLVESGGGLVQAGGSLRLSCDASGSIFASNTMGWYRQEPGQERELVAGITKIGSSTYYADSVKGRFTISRDHAKNTVYLKMNSLTPEDTAVYYCNAYGPNIYSSRYEYWGQGTQVTVSS", "polyreactivity (PSR sort gate)": "low polyreactivity"}
{"sequence": "QVHLVESGGGLVQAGGSLRLSCSASGSTFYIYTMGCYRQAPGKARELVAAISSSGGSTYYADSVKGRFTISRDNAKNTVYLQMNILKPEDTAVYYCAADPWVRLEYDYWGQGTQVTVSS", "polyreactivity (PSR sort gate)": "low polyreactivity"}
{"sequence": "QVHLVESGGGLVQAGGSLRLSCSASGSTFYRYAMGWYRQAPGKERELVAAINTGGSTNYADSVKGRFTISRDNAKNTVYLQMNSLKPEDTAVYYCAARFQYYRKYDYWGQGTQVTVSS", "polyreactivity (PSR sort gate)": "low polyreactivity"}
{"sequence": "QVHLVESGGGLVQAGGSLRLSCTASGRTFKYNSMGSSRQEPGKERELVAAISSRGGSTYYADSVKGRFTISRDNAKNTVYLQMNSLKPEDTAVYYCAAQFTTRYDWGQGTQVTVSS", "polyreactivity (PSR sort gate)": "high polyreactivity"}
{"sequence": "QVHLVESGGGLVQAGGSLRLSFAASGLIFSAYAMAWYRQAPGKERELVAAISSSGGRTYYADSVKGRFTISRDNAKNTVYLQMNSLKPEDTAVYYGNAASKNSGRYAYQNYDYWGQGTQVTVSS", "polyreactivity (PSR sort gate)": "high polyreactivity"}
{"sequence": "QVHLVESGGGLVQAGGSLRLSFAASGRIFWDNAMGWYRQAHGKERELVAAISDSVVITYYADSVKGRFTISRDNAKNTVYLQMNSLKPEDTAVYYCAADKRGTVYLSSFWMDYWGQGTQVTVSS", "polyreactivity (PSR sort gate)": "low polyreactivity"}
{"sequence": "QVHLVESGGGLVQAGGSLRLSFAASGRISRIYTMVWYRPAPGKERELVAAITSRGGSTYYADSLKGRFTISRDNAKNTVYFQMNSLNPEDTAVYYCAAGTFWWGYRSKGDEYDYWGQGTKVTVSS", "polyreactivity (PSR sort gate)": "high polyreactivity"}
{"sequence": "QVHLVESGGGLVQAGGSLRLSFDASGRIFYRNVMGWYRQAPGKERELVATITWGGSTYYADSVKGRFTISRYNEKNTVYLQMNSLKPEDTAVYYCATVRSRLFGQYYYWGQGTQVTVTS", "polyreactivity (PSR sort gate)": "high polyreactivity"}
